We go through two substances from paper PMC6520365, “Structural and functional characterization of the PDZ domain of the human phosphatase PTPN3 and its interaction with the human papillomavirus E6 oncoprotein” (Scientific Reports, 2019).

The target in experiment [1] is PDZ domain of the human protein tyrosine phosphatase non-receptor type 3 (PTPN3-PDZ) (human) (UniProt P26045). Description: AUC; sedimentation velocity, PTPN3-PDZ alone at 25 μM, 20 °C, 42000 rpm; monomer and dimer peaks.
A further experiment has as its target p38γ PBM (Homo sapiens). The settings on record: cited from earlier work.

A word on the stoichiometry N: it is a count of units in the complex or per binding partner. Usually Kd stands for the concentration at which binding is half-saturated.

PTPN4 PDZ, sequence (P29074 514-592): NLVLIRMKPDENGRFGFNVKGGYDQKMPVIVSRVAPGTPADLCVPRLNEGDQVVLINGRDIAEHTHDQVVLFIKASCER

Substance “PDZ domain of the human protein tyrosine phosphatase non-receptor type 3 (PTPN3-PDZ) (from UniProt P26045-1 504-913) (domain or fragment)” registered a stoichiometry N in experiment [1] of 2.

Take PTPN4 PDZ (from UniProt P29074): in the experiment with p38γ PBM (Homo sapiens), the Kd is 1600 nM.
